Reference: patent US20020192704A1

Target: IRR-Fc fusion protein (extracellular region of mouse insulin receptor-related receptor, 1-920th residues, fused to the H-chain C (constant) region (Fc region) of human IgG1) (mouse; human) (UniProt Q9WTL4)
Assay: SPR (BIACORE 2000), IRR-Fc immobilised on a CM5 chip, IR-Fc flow cell subtracted; about 10 ug of specimen in 200 ul of buffer

IRR-Fc fusion protein (extracellular region of mouse insulin receptor-related receptor, 1-920th residues, fused to the H-chain C (constant) region (Fc region) of human IgG1) (mouse; human), sequence (Q9WTL4 27-920 limits assumed, form in doubt): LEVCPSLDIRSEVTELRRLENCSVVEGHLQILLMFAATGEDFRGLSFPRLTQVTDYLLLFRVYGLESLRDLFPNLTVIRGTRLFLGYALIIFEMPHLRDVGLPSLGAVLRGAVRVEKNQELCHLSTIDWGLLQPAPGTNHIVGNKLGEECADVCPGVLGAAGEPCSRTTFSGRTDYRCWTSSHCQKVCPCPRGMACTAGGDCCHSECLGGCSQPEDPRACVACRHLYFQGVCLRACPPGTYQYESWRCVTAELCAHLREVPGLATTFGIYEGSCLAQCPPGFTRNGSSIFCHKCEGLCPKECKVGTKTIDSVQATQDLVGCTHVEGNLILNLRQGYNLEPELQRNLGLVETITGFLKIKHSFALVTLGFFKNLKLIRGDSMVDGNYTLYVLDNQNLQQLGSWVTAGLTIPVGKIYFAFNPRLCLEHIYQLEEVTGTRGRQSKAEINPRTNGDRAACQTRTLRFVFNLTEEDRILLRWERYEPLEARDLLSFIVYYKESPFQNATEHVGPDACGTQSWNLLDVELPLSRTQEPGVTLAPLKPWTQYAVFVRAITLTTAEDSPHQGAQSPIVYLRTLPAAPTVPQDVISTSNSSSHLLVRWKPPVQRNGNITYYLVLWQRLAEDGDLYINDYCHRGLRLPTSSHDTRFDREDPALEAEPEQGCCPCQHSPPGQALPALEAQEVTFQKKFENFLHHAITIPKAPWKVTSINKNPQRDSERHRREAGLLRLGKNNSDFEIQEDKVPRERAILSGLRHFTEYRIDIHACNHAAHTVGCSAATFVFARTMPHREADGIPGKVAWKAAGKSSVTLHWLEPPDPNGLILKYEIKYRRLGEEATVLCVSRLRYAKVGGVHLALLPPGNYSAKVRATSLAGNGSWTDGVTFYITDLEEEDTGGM

| Substance | binding activity (RU; IRR-Fc binding value minus IR-Fc binding value) [RU] |
| --- | --- |
| Peak 1 of the re-purified IRR ligand from rat C6 glioma cell culture supernatant (rat epithelin/granulin precursor fragments, SEQ ID NOS: 5 and 6) (from UniProt P23785 438-494) | 13 |
| Peak 2 of the re-purified IRR ligand from rat C6 glioma cell culture supernatant (rat epithelin/granulin precursor fragment, SEQ ID NO: 4) (from UniProt P23785 439-494) | 21 |
